From the domain aggregation screens of Martell et al. (2025) come the findings set out here.

This data set is described as follows: soluble fraction after stress (log2 fold change); higher = more stays soluble; pooled small domains, quantitative proteomics. Conditions: stress: 50 degC. The method in brief: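 Pooled custom libraries of small protein domains were each held under stress at 50°C. The read-out, high-throughput quantitative proteomics, tracked how much of each protein stayed soluble. This is reported as a base-two log fold change used to indicate aggregation propensity. Higher values mean more protein remains in solution.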
“HMLAERKERDKAELKELILDAAKKILLKNGQEGLSIRKIATTVEYSPATIYLYFKDKDEILHELMEMG”: the “soluble fraction (log2)” value came to 0.317. As to “HMGEDLTIDQLAAEVDMTVRNIRAHQARGLLPPPTIKGRIGYYGPLHRRRLQQIRAMQEEGLNLAAIAKVV”, the “soluble fraction (log2)” value is -0.609. As to “HMARGTRTRAKLLAAAEVVFARYGYTEASIERITEEAGVGQGTFYLYFASKLEIFEELVDDLNR”, the “soluble fraction (log2)” value is -2.87. Turning to “HMEKEFLFNGGKVVMNYEADRIQIMHDTKPGQDVITLMKKNGFKWSPFNKAWQRQITANAIYTTKHLINQ”, the “soluble fraction (log2)” value was -1.5.

Regarding “HMNKDWQDEVALQRYTMITPLLSEDLDNAKRIAMREKIAQDNLTTARSLYRYEKAYRENGFQGLRPTD”, the “soluble fraction (log2)” value is -0.146. For “HMGPLPIDSRYFNNLVPYTGITHVNSVIPEAERHIGLTVVVKTGSTYSEYWYRTGVTNSSLELKT” the value was -0.634; for “HMDESLLDYALREIKARIQNGTYPPGTKLSTQEISDSLGISRTPVVAAINRLVAQGVAEAIPRRGTIVAR”, 0.0188; for “HMDNNNQAAFMGALNSLKEYAKVNGNIVTKQDVESYFKDLGLDDSKYQMITGYLLANDITVKG”, 0.0282. Consider “HMEEKWKENYEKIKLFISINNRYPSVYSEDKEEGLIGSFMSNQKRRKNKLSKEKMALFEALPNWIWE”, for which the “soluble fraction (log2)” value was -1.72. With “HMAVVQMVDRPGGLDELLKDVVRAGVNFANAYGRTASDGNSAFFVIDIQDIPGARQKLADVGLQILADEAV”, the “soluble fraction (log2)” value was -0.192. For “HMHRNLSFEEEKEFLSAYTKQAEAGQIVDLNEMKAAYIEKVGHSIGGSQIYRMLERHGWRKVM” the value was -0.312; for “HMYEDSNQSLNFFAIKFIKEKNIKISQETTNLIVERARGDRGNLINELQKLEALSLTRKKITQEDVFNLTN”, -0.774.

As for “HMGSVVATLRKLIIDGHYPAGTRLAEIPVANALGVSRTPVRLAFRTLQQEGLLQTVGKRGIVVRAF”, the “soluble fraction (log2)” value was -1.21.

For “HMTPVTYELTVQSGAGQRIDKYLSEQLADLTRSYLQKLLKDGGVTVNGKTVKSNYKLSENDQIFLEVPDA”, the “soluble fraction (log2)” value was 0.0372. The figure for “HMILPKFNQLLGQMGENIKLARKRRKLTAVQVSERAGIARSTLYLIEKGDASVSLGAYFNVLRVLG” is -1.46; for “HMSENPLTSREIEIVQLLANGKTTKSIAEELHLSNGTIRNYVSIVLDKLNVSNRIEAIRKALDKGWL” it is -1.29. Turning to “HMQITQSSEPIDVSALRLGMFIHLEGGWLSHPFPRSSFKITSEDQLVTLRSLGISVLRWSPELSDPE”, the “soluble fraction (log2)” value is -0.834. The figure for “HMRPTAWDQISDWLDRHGSIANADVVRIAGLDTLKASKLLTTWREQGLLEPLPGRGKRNMAYVRAI” is -0.554.

On to “HMSSADIPFSRFIDDVEAQRVEKVTIDGVNVTGRYRSDGAAFKTIIPSQYDGLVPILRQNKVDITVKDA”, for which the “soluble fraction (log2)” value was found to be 0.123. For “HMDSGLLSAREREVAGLVLSGMTYAEIGEAIFISPRTAEHHIARIRRRLGATSRTDLIAKLQAIVGID” the value was -3.45; for “HMTDKLEEEAKKKAMEDALADEMNISKTIVHDGIRELARIGFLDVISRKGIYVADYTFTGNLETLLAVIRY”, -0.926; for “HMGAGLLEPEPLKIEIQETQERLQKLQKALERDTETADSKERIKRAIEAHKARISQLQGLIE”, 0.0635. Regarding “HMNAAYDEELDFIFSLSEKGKWEEAEAEIGLLLQKHPEDATLQRIGEWVTTQKILLRQQAVEDRIRS”, the “soluble fraction (log2)” value is -0.0763. Turning to “HMKGALQIAIEEGFNWNLDKKYWNIVQSTVIAKRLGLKTTSGLKEAIEGMGGEYKRTKKARGYLVPTFKD”, the “soluble fraction (log2)” value is -2.31.

As to “HMNNPNFAIQKYVTGSDIKRVRKTLRLTQKKFAELVGVSKATMERWETKEDKITGPVVLLLKILEDHPEY”, the “soluble fraction (log2)” value is -1.3. For “HMPEPPRVGETLAALRQDRALSLDELSRQAGVSKSMLSQIERNQANPTVAVVWRLANALGVPMAELLGA”, the “soluble fraction (log2)” value is -0.108. As to “HMKVSDPEAIKLIEQAQVKVIPFLDISEAADIQIALEELKNSEGTGQTDSAKVRLRNLLSPFSYL”, the “soluble fraction (log2)” value was 0.269.

With “HMPTYEEAKTYLKAAFEHIVAAGRDVGELVEFAFAKSGDAVAPYLRRFLSDVHEGRITIQGLTESAKLAV”, the “soluble fraction (log2)” value was found to be 0.206. With “HMYLPPYMEVRAVMILDGKPMALMYIEGEGDGLIVSPGYKFDNGKGKVVSITPTKVVVLWAGTKMELG”, the “soluble fraction (log2)” value was -2.14.

As to “HMLDRNKLNELDAYIESFEDKPSHLIMILHRAQGLFGYLPKELQIYVAEKTGVPAAKVYGVVTFYSFFTMK”, the “soluble fraction (log2)” value is -1.4. Regarding “HMDSAQLARWAATILAQNGRKITPSTMNLFLERVGDDMENIRMELEKLISYTMGSEVVTAEDVKVITTVQ”, the “soluble fraction (log2)” value was -0.569.

As for “HMDIVKVYTTARAGETLASVAKRTGVDVARLAQWNDIPLKRAKQKLKTGKALALWVQREHASAYSNAPP”, the “soluble fraction (log2)” value was -0.151.

With “HMHTTIIVASRDIAAGSVLTSHDLSSVAWVGGAVPKGSYTAADLAVGKTAFTAFQQGEPILESRLAS”, the “soluble fraction (log2)” value is -0.00332. For “HMERDVNQLTPRERDILKLIAQGLPNKMIARRLDITESTVKVHVKHMLKKMKLKSRVEAAVWVHQERI” the value was -1.38. As for “HMAPIEVPYNVFRQQVVEGNVESVATRADTVQGYFETPVTLPARPDAAAAEPVTVERFSTTLPSF”, the “soluble fraction (log2)” value is 0.142. As to “HMARPLHVDALIHLGTEIGSRVGGAHAGPHLLVAGHSPMSELVYARLLGIPTLGWMRGQLTFVNLSK”, the “soluble fraction (log2)” value is 0.155.

As for “HMQLSASQQQILNHAAVNTDGKLVWFPETLKGGARKKVLDSLFSRALITTDGTHWFVAAEGYEALGIP”, the “soluble fraction (log2)” value was -0.877. As for “HMQYRQRRGLERMELILDAATRVVAEVGYERTTTNAIATRAGISPGSLYQYFSSKEDIASALWERYAE”, the “soluble fraction (log2)” value was -0.23.

Turning to “HMRTGSSVLVGLVAPVRLGATGAPKVFADGALWEARSAVPLNDGQLVEITGTDGLTVLVKPSA”, the “soluble fraction (log2)” value was found to be 0.0494.

Consider “HMNLLGDNIRKLRLEKGLGLNEVARLANITGGYLSSIENNKRTNVGTEILESIAKAIGVSVSDFYL”, for which the “soluble fraction (log2)” value is -0.0298. As to “HMSGEIPFPPAFKPSADHIAIASEKGINIETELLNFRDYHQARGTKLIDWNSAFRVWLRNAR”, the “soluble fraction (log2)” value is -0.144. The figure for “HMDIGTRQRIIAAAMELFRQKGMDGMSMRELAERAGVNKGLLHYYFTTKEAIFREVFVHQVEM” is -0.15; for “HMPRDYYAVLEVSVSSTPVQIRQAYQRLARRYSPDVNFLDRDTEALFEEIVEAYRVLSNPTARTLYDRG” it is -4.48; for “HMSYANVEWRDFLNSLDEKYRIVVILYYVQGFKTREIAEILQINQSTVRGRLAKAREKLEQQYN” it is -1.46. For the sequence “HMADEIQLVVQVNGKLRGRIMVAPDASREEIEKTALADADVSRFLGDTPVKKVIIVPKRLVNIVAPAPK”, the “soluble fraction (log2)” value was -0.0114. As for “HMNVWESVDLRQEQHEAKRRLILKQAALLFADRGFHETTIDQIAEALNVTKPTIYYYIESKEDLLYQVA”, the “soluble fraction (log2)” value was -0.0821. The figure for “HMTQTGEVIRWDAERGFGFIATADGRRHVFFHVRDFRGGAAPGVGLRVGFEEIQVGGKGPRAMDVRPL” is -0.48; for “HMEGFKSVYFLTTPSGAEISDRSVGDIISKTPSLVSAQEGTEFEFNLKGYQPSFYMINKRSPDRVFVELIP” it is -0.535.

As to “HMTATWLTYYRIKAGLTQKRLAELAGLNIRQVQKIENGETLAGNTTAKNLLALADALGIDPHKL”, the “soluble fraction (log2)” value is -2.05. Consider “HMWMQKILGNYIAARRKELGMTQANLAEKIHVTDKAVSRWERGVGLPDIENLEALAKALEVSLVSLMQGKT”, for which the “soluble fraction (log2)” value is -1.59. For “HMNFNYPVIVKNSRINVSGVLSAAKLYTINGQLLQSYKGSGEFTSKTLTKGIYILQVDNARTKVLV” the value was -1.29; for “HMQETILFGQQKAINNLSSDTGLSENDLDSYLKKRYKKPLYQLTQSEGADIINGFQDGSLSKNSILDYIKP”, 0.16.

For the sequence “HMRFANGHLIWDTIIELRNAERRINRRALADLTGLKPGVVDDHVERWIEKDQLRRAGNGELEVV”, the “soluble fraction (log2)” value is -0.943.

“HMPEPLTARETEVLRLLSGGYSNREIAAAMFLAEGTIKNHVSAVLLKLGVRDRTRAVLRGLELGLIQ”: the “soluble fraction (log2)” value is -1.81. For “HMSRQREWIYDYIQSHPDRHMSVEEIYEGLKAENREVSVATVYRNLKILQDENRIASLMLESGKQVFDK”, the “soluble fraction (log2)” value is -0.371. For the sequence “HMRPAAELGLPHAPKHFIQYLTEDDRPQVLKDVDYEGGMGVSIGRLREDSIFDWKFVGLAHNTL”, the “soluble fraction (log2)” value was found to be 0.062. Take “HMKIPPIMFVRAIMVAGRQSMAIMDIEGVGTGIIVRSGYSFSNGEGKVVRIGPDKVTVNWSGKHLDLAPG”: the “soluble fraction (log2)” value is -0.615.

Regarding “HMGDGRVGVITASIAYEYAKEVFPEGTSFLKLGLTFPLPMDLIRDFASKVEKLYVIEELEPL”, the “soluble fraction (log2)” value is -0.215. On to “HMPTLTPFDVARIENAINPRLNLETAAKLKPWIAAGYTAQETADGTGFSPDTVKKYAAIFRK”, for which the “soluble fraction (log2)” value came to 0.103. For “HMSGEDYLERILMLKEKHGNVRAIDIANSMNFSKPSVSIALHKLSENGYVVIQNNGAIELTEKGLEVAT”, the “soluble fraction (log2)” value was -0.315. As for “HMTSISMDEKVVLGWHQVTTGAANSGMDKVVSNTSGLNVISPTWFKLSDNKGNYISIASKDYVDAAHKKGL”, the “soluble fraction (log2)” value is -0.232. As for “HMGHKTLTVELQEKIENLPQTLDKYNLTLGNNKMSVDYTYSVKEKQTGITNLLQDLKEHKFDIVYLVGQDN”, the “soluble fraction (log2)” value turned out to be 0.251. On to “HMTTRQREALLDYLSRHPDQPLTVREIAAGVEPDGVSLSAVYRNLAELEAAGLIRRESRPGSREAVVQYV”, for which the “soluble fraction (log2)” value is 0.049. On to “HMSFRYLHVKRQLMSLIGTMNAHERLPSRTDLSETFQVARTTIERAISELIGEGWLYARDGSGTYVAER”, for which the “soluble fraction (log2)” value was -1.66. The figure for “HMDHKSQLQEWAQSTLGETPRYVTIAETGPDHDKELTVELIIGRKSYSIAKGKSKKQAEQSAARIALGLLM” is -0.653; for “HMFEKIDINFADIHQLKGLPLNSEQINSIIEYRNQNGFIENIYDLKNVNGISIDKVHELKSYIFIIDV” it is -2.42; for “HMTMEQAEFLSRQFNLLSQRLNDPSIEWQDIADLRSEYTGEDEHRDTIRKGAKLFYEYLEAGWIKN” it is -0.581. Regarding “HMRILGIDPGSVVTGYGVIDKSGNYLRHVLHGEIKPHKGYLLSEVLMDIFSKLSAVIVETNPQSV”, the “soluble fraction (log2)” value is -0.0179.
